Measurements as given in US20230227577A1 (MYTHIC THERAPEUTICS, published 2023).

Assays:
[1] = target: T1, mouse DLL3 protein (mouse, UniProt O88516 33-490, limits assumed); assay: Octet (DLL3 on AR2G tips), ELISA and FACS; values only in FIG. 3
T1 construct: also called murine DLL3
T1 sequence (looked up): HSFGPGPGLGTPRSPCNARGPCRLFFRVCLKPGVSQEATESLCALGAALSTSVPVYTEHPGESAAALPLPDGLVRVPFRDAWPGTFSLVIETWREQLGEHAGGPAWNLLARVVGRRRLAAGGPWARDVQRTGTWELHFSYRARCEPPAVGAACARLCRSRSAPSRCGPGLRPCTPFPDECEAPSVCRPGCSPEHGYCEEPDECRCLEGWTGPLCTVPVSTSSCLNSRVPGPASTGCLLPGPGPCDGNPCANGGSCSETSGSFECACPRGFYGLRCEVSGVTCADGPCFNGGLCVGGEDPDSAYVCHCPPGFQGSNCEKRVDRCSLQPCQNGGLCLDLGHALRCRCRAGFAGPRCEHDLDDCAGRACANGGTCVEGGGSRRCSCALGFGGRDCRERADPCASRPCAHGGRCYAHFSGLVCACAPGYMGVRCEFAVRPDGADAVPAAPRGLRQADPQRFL

[2] = target: T2, mouse DLL3 on CHO cells (mouse, UniProt O88516 33-592); assay: flow cytometry (FACS) on CHO cells expressing mouse DLL3
T2 construct: whole, on cells; also called CHO cells expressing mouse DLL3
T2 sequence (looked up): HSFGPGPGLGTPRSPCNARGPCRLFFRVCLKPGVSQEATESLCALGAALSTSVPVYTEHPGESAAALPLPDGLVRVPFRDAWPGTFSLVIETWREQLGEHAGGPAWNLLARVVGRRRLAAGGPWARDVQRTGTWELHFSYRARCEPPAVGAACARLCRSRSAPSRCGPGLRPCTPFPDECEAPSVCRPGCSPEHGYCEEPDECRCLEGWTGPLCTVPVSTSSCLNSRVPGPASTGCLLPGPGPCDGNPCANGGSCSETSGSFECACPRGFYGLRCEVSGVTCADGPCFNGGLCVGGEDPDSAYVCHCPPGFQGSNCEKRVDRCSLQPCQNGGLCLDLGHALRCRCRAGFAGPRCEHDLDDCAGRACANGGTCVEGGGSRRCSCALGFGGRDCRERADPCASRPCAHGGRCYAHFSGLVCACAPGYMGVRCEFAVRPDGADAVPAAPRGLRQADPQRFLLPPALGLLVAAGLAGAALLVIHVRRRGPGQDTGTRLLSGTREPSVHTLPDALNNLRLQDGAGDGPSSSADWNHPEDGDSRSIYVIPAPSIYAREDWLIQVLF
Experimental: (§1) Additional experiments were carried out to further characterize the binding properties of the anti-DLL3 constructs. Binding properties tested include dissociation constant (KD), off-rate (koff), binding to DLL3 protein by ELISA and binding to CHO cells expressing human, cyno or mouse DLL3. To obtain off-rate (koff), human biotinylated DLL3 was immobilized on Octet SA tips, and cynomolgus or mouse DLL3 was immobilized on Octet AR2G tips. For each DLL3 protein, the binding to a dilution series of each anti-DLL3 construct was measured using Fortebio Octet Red. The dissociation constant (KD), off-rate (koff) and other kinetic parameters for each anti-DLL3 construct were calculated using a 1:1 binding model. In addition, binding of these anti-DLL3 constructs to CHO cells expressing human, cyno or mouse DLL3 protein was analyzed using flow cytometry (FACS).

[3] = target: T3, DLL3 target antigen coated on Octet SA tips (binning experiment) (Homo sapiens (Human), UniProt Q9NYJ7 27-492, Probably biotinylated for capture on streptavidin (SA) tips. The site is not stated.); assay: Octet binning on DLL3-coated SA tips; competitor: 3HCE4
T3 sequence: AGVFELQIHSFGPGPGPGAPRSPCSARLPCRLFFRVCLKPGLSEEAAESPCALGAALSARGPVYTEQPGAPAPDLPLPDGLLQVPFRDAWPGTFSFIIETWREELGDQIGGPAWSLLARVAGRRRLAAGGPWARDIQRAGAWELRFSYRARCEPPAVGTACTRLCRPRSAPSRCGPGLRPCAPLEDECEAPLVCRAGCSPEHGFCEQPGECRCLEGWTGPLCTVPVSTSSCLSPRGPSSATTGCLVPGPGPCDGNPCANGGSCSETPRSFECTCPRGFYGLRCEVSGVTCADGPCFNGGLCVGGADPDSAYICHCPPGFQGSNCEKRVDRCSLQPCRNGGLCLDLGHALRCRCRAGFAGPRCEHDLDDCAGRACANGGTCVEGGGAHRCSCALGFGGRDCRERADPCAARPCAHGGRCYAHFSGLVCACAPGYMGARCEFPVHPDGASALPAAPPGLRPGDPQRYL
Experimental: (§2) Antibody binning experiments were carried out for 5 anti-DLL3 VHHs and an anti-human DLL3 BiTE (SEQ ID NO: 756). The target antigen was coated on a series of Octet SA tips. Each series of tips was first soaked in a periplasmic extract containing one specific VHH. After the response signals reached saturation, the tips were transferred to a mix of PEs containing again the first VHH (at the same concentration) plus a different VHH (termed secondary VHH) for each tip of the series. Secondary VHH that still bind the target antigen in the presence of the first VHH will show an increased response, as compared to the binding response of the first VHH alone. This was repeated for each VHH as primary VHH until all VHH were tested against each other in both directions (as primary and as secondary binder). From the response data, the bins were deduced for each VHH. 2HCE117 and 3HCE4 show competition with the human DLL3 BiTEs, whereas 3HCE56 and 3HCE87 show a partial competition.

[4] = target: T3, DLL3 target antigen coated on Octet SA …; assay: Octet binning on DLL3-coated SA tips; competitor: 2HCE27
Experimental: as §2

[5] = target: T3, DLL3 target antigen coated on Octet SA …; assay: Octet binning on DLL3-coated SA tips; competitor: 3HCE56
Experimental: as §2

[6] = target: T3, DLL3 target antigen coated on Octet SA …; assay: Octet binning on DLL3-coated SA tips; competitor: 3HCE87
Experimental: as §2

[7] = target: T3, DLL3 target antigen coated on Octet SA …; assay: Octet binning on DLL3-coated SA tips; competitor: 2HCE117
Experimental: as §2

[8] = target: T3, DLL3 target antigen coated on Octet SA …; assay: Octet binning on DLL3-coated SA tips; competitor: DLL3 BiTEs
Experimental: as §2

[9] = target: T4, DLL3 (ELISA DLL3); assay: ELISA, ratio of the signal on DLL3 to the signal on the control
T4 construct: also called DLL3 protein in ELISA
T4 chain: T3 sequence

[10] = target: T5, recombinant human DLL3 protein (human, UniProt Q9NYJ7 27-492, limits assumed); assay: Fortebio Octet Red, DLL3 immobilised on tips, dilution series of the VHH, 1:1 binding model; KD error 1.90E-10; Full R2 0.9862
T5 construct: also called rhu DLL3; human biotinylated DLL3
T5 sequence (looked up): T3 sequence
Experimental: as §1

[11] = target: T5, recombinant human DLL3 protein; assay: Fortebio Octet Red, DLL3 immobilised on tips, dilution series of the VHH, 1:1 binding model; kon error 5.82E+02; Full R2 0.9862
Experimental: as §1

[12] = target: T5, recombinant human DLL3 protein; assay: Fortebio Octet Red, DLL3 immobilised on tips, dilution series of the VHH, 1:1 binding model; koff error 4.12E-06; Full R2 0.9862
Experimental: as §1

binding result [1]: binds
binding result [2]: binds
binning response (unit not given) [3]: -79.6
binning response (unit not given) [4]: -3.58
binning response (unit not given) [5]: 0
binning response (unit not given) [6]: -99.1
binning response (unit not given) [7]: 1110
binning response (unit not given) [8]: 44.1
DLL3 / control [9]: 18.5
Kd [10]: 21.3 nM
kon [11]: 68500 M⁻¹ s⁻¹
koff [12]: 0.00146 s⁻¹
B1: 3HCE56 anti-DLL3 VHH (VHH)
VHH: QVQLQESGGGLVQAGGSLRLSCAASGRTFSVDAMGWLRQAPGKEREFVVVIDWTGGSTAYADSVKGRFTISRDNARNTVYLQMNNLKPEDTGVYYCAARERSRTAYDYWGQGTQVTVSS
notes: In the binning assay it was used as a periplasmic extract
